Data from patent US20230365714A1.

What was measured:
[1] = molecular target: ROR112 shuffle variant (Ig-like domain and CRD of ROR1, kringle domain of ROR2) (human (ROR1/ROR2 chimera)) (UniProt Q01973); experiment: cell imaging (CellInsight) on CHO cells expressing the shuffle construct
[2] = molecular target: ROR122 shuffle variant (Ig-like domain of ROR1, CRD and kringle domain of ROR2) (human (ROR1/ROR2 chimera)) (UniProt Q01973); experiment: as above
Chain of ROR122 shuffle variant (Ig-like domain of ROR1, CRD and kringle domain of ROR2) (human (ROR1/ROR2 chimera)) (Q01973 other isoform, or with tags, fused parts or gaps mutant limits assumed): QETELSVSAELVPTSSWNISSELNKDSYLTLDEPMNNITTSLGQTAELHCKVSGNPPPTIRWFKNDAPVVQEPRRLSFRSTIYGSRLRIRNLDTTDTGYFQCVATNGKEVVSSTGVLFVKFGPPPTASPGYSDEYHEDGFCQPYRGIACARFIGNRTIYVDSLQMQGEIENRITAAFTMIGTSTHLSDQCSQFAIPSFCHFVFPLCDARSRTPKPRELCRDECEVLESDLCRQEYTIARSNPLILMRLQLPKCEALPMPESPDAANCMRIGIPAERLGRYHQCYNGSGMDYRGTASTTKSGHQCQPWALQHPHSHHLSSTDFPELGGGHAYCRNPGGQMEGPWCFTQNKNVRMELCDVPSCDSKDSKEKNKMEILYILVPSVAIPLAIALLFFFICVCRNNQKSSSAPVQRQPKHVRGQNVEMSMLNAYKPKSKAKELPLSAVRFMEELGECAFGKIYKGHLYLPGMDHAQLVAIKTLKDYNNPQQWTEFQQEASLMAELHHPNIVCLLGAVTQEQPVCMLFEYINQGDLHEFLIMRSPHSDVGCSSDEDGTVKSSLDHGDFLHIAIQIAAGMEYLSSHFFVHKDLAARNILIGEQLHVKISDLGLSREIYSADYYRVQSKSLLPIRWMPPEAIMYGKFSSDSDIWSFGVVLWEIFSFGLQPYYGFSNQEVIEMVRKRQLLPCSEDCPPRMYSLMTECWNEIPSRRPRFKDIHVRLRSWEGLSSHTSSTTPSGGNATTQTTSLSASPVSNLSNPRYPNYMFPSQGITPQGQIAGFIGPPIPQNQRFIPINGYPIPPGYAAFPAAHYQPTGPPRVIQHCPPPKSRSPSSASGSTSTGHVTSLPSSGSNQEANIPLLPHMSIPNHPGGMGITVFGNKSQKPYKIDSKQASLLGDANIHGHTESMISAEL

Chain of ROR112 shuffle variant (Ig-like domain and CRD of ROR1, kringle domain of ROR2) (human (ROR1/ROR2 chimera)) (Q01973 other isoform, or with tags, fused parts or gaps mutant limits assumed): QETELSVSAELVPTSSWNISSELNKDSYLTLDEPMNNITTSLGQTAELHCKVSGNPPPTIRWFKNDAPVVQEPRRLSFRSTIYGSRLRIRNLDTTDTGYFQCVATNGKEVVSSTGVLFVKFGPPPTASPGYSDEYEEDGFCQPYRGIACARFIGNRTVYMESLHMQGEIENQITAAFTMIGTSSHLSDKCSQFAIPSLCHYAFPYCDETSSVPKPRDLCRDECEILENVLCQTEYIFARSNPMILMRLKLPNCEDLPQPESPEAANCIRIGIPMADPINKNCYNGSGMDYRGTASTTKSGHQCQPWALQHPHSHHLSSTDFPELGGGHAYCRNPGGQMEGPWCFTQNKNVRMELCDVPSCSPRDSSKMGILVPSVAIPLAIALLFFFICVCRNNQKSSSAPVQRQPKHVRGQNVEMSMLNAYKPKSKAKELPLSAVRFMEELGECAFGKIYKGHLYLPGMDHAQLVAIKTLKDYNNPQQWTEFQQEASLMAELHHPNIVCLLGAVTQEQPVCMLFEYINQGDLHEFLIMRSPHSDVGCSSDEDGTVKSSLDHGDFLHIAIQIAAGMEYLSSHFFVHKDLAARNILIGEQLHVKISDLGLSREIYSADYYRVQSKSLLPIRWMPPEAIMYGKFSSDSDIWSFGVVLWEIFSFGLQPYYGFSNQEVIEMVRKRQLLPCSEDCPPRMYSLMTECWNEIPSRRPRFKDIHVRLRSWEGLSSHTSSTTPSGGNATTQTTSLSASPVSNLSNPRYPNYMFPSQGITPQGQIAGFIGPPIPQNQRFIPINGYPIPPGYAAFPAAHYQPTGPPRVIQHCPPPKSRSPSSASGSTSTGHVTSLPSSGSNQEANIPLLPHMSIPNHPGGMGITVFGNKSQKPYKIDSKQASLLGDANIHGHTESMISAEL

- RFU (total spot intensity) [1]: > 12000 RFU
- RFU (total spot intensity) [2]: > 12000 RFU
B1: chIgG1-ROR2-A (antibody, V domains shown)
VH: QSVEESGGRLVTPGTPLTLTCTVSGFSLSSYSMSWVRQAPGKGLEWIGVIYVNSKTWYANWAKGRFTISKTSTTVDLKITSPTTEDTATYFCARGDAGYTTNSWLWGPGTLVTVSS
VL: AFELTQTPASVSEPVGGTVTIKCQASESIDNYCSWYQQKPGQPPKLLIYQAFKLASGVPSRFRGSGSGTQFTLTISDLESDDAATYYCQSYSGISTTAFGGGTEVVVK
